Laboratory results as given in patent publication US11155596B2, “Polypeptide” (AFFIBODY AB, priority 2016, dated 2021).

Legend:
[1] = target: human PD-L1 Fc Chimera (R&D Systems, cat. no. 156-B7-100) (human) (UniProt Q9NZQ7); experiment: ELISA screen, 40 pM hPD-L1
[2] = target: PD-L1 on PD-L1 expressing cells (IFNg-stimulated THP-1 cells; MDA-MB-231 cells) (Homo sapiens (Human)) (UniProt Q9NZQ7); experiment: FACS, MDA-MB-231 cells, 1 µg/ml, positive control
[3] = target: PD-L1 on PD-L1 expressing cells (IFNg-stimulated THP-1 cells; MDA-MB-231 cells) (Homo sapiens (Human)) (UniProt Q9NZQ7); experiment: FACS, MDA-MB-231 cells, 0.625 µg/ml; negative control (buffer) 69

human PD-L1 Fc Chimera (R&D Systems, cat. no. 156-B7-100) (human), sequence (Q9NZQ7 19-239, change not shown): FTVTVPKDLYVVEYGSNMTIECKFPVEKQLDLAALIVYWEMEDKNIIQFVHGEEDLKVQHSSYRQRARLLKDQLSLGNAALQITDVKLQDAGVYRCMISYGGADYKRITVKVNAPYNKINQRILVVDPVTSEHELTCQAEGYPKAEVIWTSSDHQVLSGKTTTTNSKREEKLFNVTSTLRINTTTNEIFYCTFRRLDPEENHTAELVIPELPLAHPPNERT

Substance: fusion protein ABD with no Z-fusion partner (periplasmic negative control) (from UniProt P19909)
- ELISA response (average) [1]: 0.051 AU

Substance: mouse anti-PD-L1 antibody (R&D Systems, cat. no. MAB1561) (tool reagent)
- MFI [2]: 610

Substance: ipilimumab (Yervoy, Bristol-Myers Squibb, bought) (antibody)
- MFI [3]: 64
